From patent US20240270846A1 (published 2024)
Where a chain is given by its changes, count along the chain named. In names and notes the source's numbering stands.

B1: CE115HA000 H chain altered form H35A (antibody, human IgG1, kappa, L234A L235A, N297A, name in Kabat numbering)
heavy: QVQLVESGGGVVQPGRSLRLSCAASGFTFSNAWMAWVRQAPGKGLEWVAQIKAKSNNYATYYAESVKGRFTISRDDSKNSLYLQMNSLKTEDTAVYYCRYVHYGAYYGVDAWGQGTTVTVSSASTKGPSVFPLAPSSKSTSGGTAALGCLVKDYFPEPVTVSWNSGALTSGVHTFPAVLQSSGLYSLSSVVTVPSSSLGTQTYICNVNHKPSNTKVDKKVEPKSCDKTHTCPPCPAPEAAGGPSVFLFPPKPKDTLMISRTPEVTCVVVDVSHEDPEVKFNWYVDGVEVHNAKTKPREEQYASTYRVVSVLTVLHQDWLNGKEYKCKVSNKALPAPIEKTISKAKGQPREPQVYTLPPSRCELTKNQVSLSCAVKGFYPSDIAVEWESNGQPENNYKTTPPVLDSDGSFFLVSKLTVDKSRWQQGNVFSCSVMHEALHNHYTQKSLSLSPDYKDDDDK
chain: EPKSSDKTHTCPPCPAPELLGGPSVFLFPPKPKDTLMISRTPEVTCVVVDVSHEDPEVKFNWYVDGVEVHNAKTKPREEQYNSTYRVVSVLTVLHQDWLNGKEYKCKVSNKALPAPIEKTISKAKGQPREPQVCTLPPSRDELTKNQVSLWCLVKGFYPSDIAVEWESNGQPENNYKTTPPVLDSDGSFFLYSKLTVDKSRWQQGNVFSCSVMHEALHNRYTQKSLSLSP
light: DIVMTQSPLSLPVTPGEPASISCRSSQSLVHSNRNTYLHWYQQKPGQAPRLLIYKVSNRFSGVPDRFSGSGSGTDFTLKISRVEAEDVGVYYCGQGTQVPYTFGQGTKLEIKRTVAAPSVFIFPPSDEQLKSGTASVVCLLNNFYPREAKVQWKVDNALQSGNSQESVTEQDSKDSTYSLSSTLTLSKADYEKHKVYACEVTHQGLSSPVTKSFNRGEC
notes: one-arm antibody
B2: GLS3000 Y32D one-arm antibody (H chain CE115HA000) (antibody, human IgG1, kappa, L234A L235A, N297A, name in Kabat numbering)
heavy: B1 heavy with A35H
chain: B1 chain
light: B1 light with Y37D
notes: one-arm antibody
B3: CE115HA000 H chain altered form A52aV (antibody, human IgG1, kappa, L234A L235A, N297A, name in Kabat numbering)
heavy: B1 heavy with A35H, A53V
chain: B1 chain
light: B1 light
notes: one-arm antibody
B4: CE115HA000 H chain altered form A52aD (antibody, human IgG1, kappa, L234A L235A, N297A, name in Kabat numbering)
heavy: B1 heavy with A35H, A53D
chain: B1 chain
light: B1 light
notes: one-arm antibody
B5: GLS3000 V27cY one-arm antibody (H chain CE115HA000) (antibody, human IgG1, kappa, L234A L235A, N297A, name in Kabat numbering)
heavy: B1 heavy with A35H
chain: B1 chain
light: B1 light with V30Y
notes: one-arm antibody
B6: CE115HA000 H chain altered form A52aP (antibody, human IgG1, kappa, L234A L235A, N297A, name in Kabat numbering)
heavy: B1 heavy with A35H, A53P
chain: B1 chain
light: B1 light
notes: one-arm antibody
B7: GLS3000 V27cE one-arm antibody (H chain CE115HA000) (antibody, human IgG1, kappa, L234A L235A, N297A, name in Kabat numbering)
heavy: B1 heavy with A35H
chain: B1 chain
light: B1 light with V30E
notes: one-arm antibody
B8: CE115HA000 H chain altered form A56Q (antibody, human IgG1, kappa, L234A L235A, N297A, name in Kabat numbering)
heavy: B1 heavy with A35H, A59Q
chain: B1 chain
light: B1 light
notes: one-arm antibody
B9: CE115HA000 H chain altered form A60D (antibody, human IgG1, kappa, L234A L235A, N297A, name in Kabat numbering)
heavy: B1 heavy with A35H, A63D
chain: B1 chain
light: B1 light
notes: one-arm antibody
B10: CE115HA000 H chain altered form A52aS (antibody, human IgG1, kappa, L234A L235A, N297A, name in Kabat numbering)
heavy: B1 heavy with A35H, A53S
chain: B1 chain
light: B1 light
notes: one-arm antibody
B11: CE115HA000 H chain altered form A32Y (antibody, human IgG1, kappa, L234A L235A, N297A, name in Kabat numbering)
heavy: B1 heavy with A32Y, A35H
chain: B1 chain
light: B1 light
notes: one-arm antibody
B12: CE115HA000 H chain altered form A52aG (antibody, human IgG1, kappa, L234A L235A, N297A, name in Kabat numbering)
heavy: B1 heavy with A35H, A53G
chain: B1 chain
light: B1 light
notes: one-arm antibody
B13: CE115HA000 H chain altered form A56Y (antibody, human IgG1, kappa, L234A L235A, N297A, name in Kabat numbering)
heavy: B1 heavy with A35H, A59Y
chain: B1 chain
light: B1 light
notes: one-arm antibody
B14: GLS3000 S56D one-arm antibody (H chain CE115HA000) (antibody, human IgG1, kappa, L234A L235A, N297A, name in Kabat numbering)
heavy: B1 heavy with A35H
chain: B1 chain
light: B1 light with S61D
notes: one-arm antibody
B15: CE115HA000 H chain altered form A56K (antibody, human IgG1, kappa, L234A L235A, N297A, name in Kabat numbering)
heavy: B1 heavy with A35H, A59K
chain: B1 chain
light: B1 light
notes: one-arm antibody
B16: GLS3000 S56A one-arm antibody (H chain CE115HA000) (antibody, human IgG1, kappa, L234A L235A, N297A, name in Kabat numbering)
heavy: B1 heavy with A35H
chain: B1 chain
light: B1 light with S61A
notes: one-arm antibody
B17: GLS3000 V27cI one-arm antibody (H chain CE115HA000) (antibody, human IgG1, kappa, L234A L235A, N297A, name in Kabat numbering)
heavy: B1 heavy with A35H
chain: B1 chain
light: B1 light with V30I
notes: one-arm antibody
B18: CE115HA000 H chain altered form A52aE (antibody, human IgG1, kappa, L234A L235A, N297A, name in Kabat numbering)
heavy: B1 heavy with A35H, A53E
chain: B1 chain
light: B1 light
notes: one-arm antibody
B19: GLS3000 V27cS one-arm antibody (H chain CE115HA000) (antibody, human IgG1, kappa, L234A L235A, N297A, name in Kabat numbering)
heavy: B1 heavy with A35H
chain: B1 chain
light: B1 light with V30S
notes: one-arm antibody
B20: GLS3000 V27cD one-arm antibody (H chain CE115HA000) (antibody, human IgG1, kappa, L234A L235A, N297A, name in Kabat numbering)
heavy: B1 heavy with A35H
chain: B1 chain
light: B1 light with V30D
notes: one-arm antibody
B21: CE115HA000 H chain altered form A56L (antibody, human IgG1, kappa, L234A L235A, N297A, name in Kabat numbering)
heavy: B1 heavy with A35H, A59L
chain: B1 chain
light: B1 light
notes: one-arm antibody
B22: GLS3000 V27cP one-arm antibody (H chain CE115HA000) (antibody, human IgG1, kappa, L234A L235A, N297A, name in Kabat numbering)
heavy: B1 heavy with A35H
chain: B1 chain
light: B1 light with V30P
notes: one-arm antibody
B23: GLS3000 Y32A one-arm antibody (H chain CE115HA000) (antibody, human IgG1, kappa, L234A L235A, N297A, name in Kabat numbering)
heavy: B1 heavy with A35H
chain: B1 chain
light: B1 light with Y37A
notes: one-arm antibody
B24: CE115HA000 H chain altered form A56N (antibody, human IgG1, kappa, L234A L235A, N297A, name in Kabat numbering)
heavy: B1 heavy with A35H, A59N
chain: B1 chain
light: B1 light
notes: one-arm antibody
B25: GLS3000 V51D one-arm antibody (H chain CE115HA000) (antibody, human IgG1, kappa, L234A L235A, N297A, name in Kabat numbering)
heavy: B1 heavy with A35H
chain: B1 chain
light: B1 light with V56D
notes: one-arm antibody
B26: CE115HA000 H chain altered form A52aY (antibody, human IgG1, kappa, L234A L235A, N297A, name in Kabat numbering)
heavy: B1 heavy with A35H, A53Y
chain: B1 chain
light: B1 light
notes: one-arm antibody
B27: CE115HA000 H chain altered form A56G (antibody, human IgG1, kappa, L234A L235A, N297A, name in Kabat numbering)
heavy: B1 heavy with A35H, A59G
chain: B1 chain
light: B1 light
notes: one-arm antibody
B28: GLS3000 T31D one-arm antibody (H chain CE115HA000) (antibody, human IgG1, kappa, L234A L235A, N297A, name in Kabat numbering)
heavy: B1 heavy with A35H
chain: B1 chain
light: B1 light with T36D
notes: one-arm antibody
B29: GLS3000 S52D one-arm antibody (H chain CE115HA000) (antibody, human IgG1, kappa, L234A L235A, N297A, name in Kabat numbering)
heavy: B1 heavy with A35H
chain: B1 chain
light: B1 light with S57D
notes: one-arm antibody
B30: GLS3000 V27cL one-arm antibody (H chain CE115HA000) (antibody, human IgG1, kappa, L234A L235A, N297A, name in Kabat numbering)
heavy: B1 heavy with A35H
chain: B1 chain
light: B1 light with V30L
notes: one-arm antibody
B31: CE115HA000 H chain altered form A56D (antibody, human IgG1, kappa, L234A L235A, N297A, name in Kabat numbering)
heavy: B1 heavy with A35H, A59D
chain: B1 chain
light: B1 light
notes: one-arm antibody

Experiments:
[1] = biological target: T1, CD3 epsilon homodimer protein (UniProt P07766 23-126); assay: SPR Biacore T200, CD3 epsilon homodimer on chip, antibody as analyte;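 note: homodimer amine-coupled to a CM4 sensor chip, run at 25 °C in HBS-EP+ buffer, with kinetic parameters derived in Biacore T200 Evaluation Software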
T1 construct: also called CD3 (CD3 epsilon)
T1 sequence (P07766 23-126): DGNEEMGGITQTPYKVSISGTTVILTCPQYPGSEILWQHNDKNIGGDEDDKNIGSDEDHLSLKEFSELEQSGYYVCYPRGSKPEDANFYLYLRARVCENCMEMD
Protocol: (§1) An appropriate amount of CD3 epsilon homodimer protein was immobilized onto Sensor chip CM4 (GE Healthcare Japan Corp.) by the amine coupling method. Then, the antibody having an appropriate concentration was injected thereto as an analyte and allowed to interact with the CD3 epsilon homodimer protein on the sensor chip. Then, the sensor chip was regenerated by the injection of 10 mmol/L glycine-HCl (pH 1.5). The assay was conducted at 25 degrees C., and HBS-EP+(GE Healthcare Japan Corp.) was used as a running buffer. […] Each parameter was calculated using Biacore T200 Evaluation Software (GE Healthcare Japan Corp.).
Specifically, when the amount of the antibody comprising CE115HA000 bound was defined as X and the amount of the H chain one-amino acid altered form bound was defined as Y, a value of Z (ratio of amounts bound)=Y/X was used.

[2] = biological target: T2, CD3 epsilon homodimer protein (UniProt P07766 23-126); assay: SPR, CD3e homodimer on chip;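 note: surface plasmon resonance at 25 degrees C, antibodies flowed as analyte over CD3 epsilon homodimer amine-coupled to a CM4 chip, running buffer HBS-EP+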
T2 construct: also called CD3 (CD3 epsilon)
T2 sequence (P07766 23-126): as above
Protocol: as §1
Specifically, when the amount of the GLS3000-containing antibody bound was defined as X and the amount of the L chain one-amino acid altered form bound was defined as Y, a value of Z (ratio of amounts bound)=Y/X was used.

Binder	KD ratio (KD of CE115HA000 / KD of altered form) [1]	ratio of amounts bound (altered form / unaltered GLS3000 antibody) [2]
B1	25	
B2		0.23
B3	0.95	
B4	1.35	
B5		0.77
B6	5	
B7		0.61
B8	0.74	
B9	0.94	
B10	0.82	
B11	2.11	
B12	0.61	
B13	0.63	
B14		0.77
B15	1.32	
B16		1.16

Binder	KD ratio (KD of CE115HA000 / KD of altered form) [1]	ratio of amounts bound (altered form / unaltered GLS3000 antibody) [2]
B17		0.96
B18	0.89	
B19		0.51
B20		0.32
B21	0.77	
B22		0.3
B23		0.24
B24	0.84	
B25		0.33
B26	7.71	
B27	0.59	
B28		0.23
B29		0.63
B30		0.84
B31	0.71	
